Measured values published in patent CN116554324A (SANYOU BIO INC, dated 2023).

T1: Mus4-1BB-hFc (mouse; human, UniProt P20334 24-187)
T1 construct: range 24-187; also called 鼠4-1BB抗原蛋白Mus4-1BB-hFc; not shown: Fc tag made by the same method as for hu4-1BB-hFc (human IgG1 Fc fragment)
T1 sequence (looked up): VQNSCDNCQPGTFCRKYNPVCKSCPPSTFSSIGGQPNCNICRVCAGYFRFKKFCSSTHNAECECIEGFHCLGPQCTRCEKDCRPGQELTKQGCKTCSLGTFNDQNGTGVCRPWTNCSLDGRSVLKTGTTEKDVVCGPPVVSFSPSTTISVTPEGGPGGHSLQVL


Legend:
Mus4-1BB-hFc = target: T1, Mus4-1BB-hFc; assay: ELISA, Mus4-1BB-hFc coated at 2 μg/mL, anti-human kappa+lambda-HRP
hu4-1BB-His = target: T2, hu4-1BB-His (human, UniProt Q07011 24-186); assay: ELISA, hu4-1BB-His coated at 2 μg/mL, anti-human IgG Fc-HRP
T2 construct: range 24-186; Expressed in ExpiCHO and purified on Ni beads; also called 抗原蛋白hu4-1BB-His; 人4-1BB抗原蛋白; not shown: C-terminal His tag

hu4-1BB-hFc = target: T3, hu4-1BB-hFc (human, UniProt Q07011 24-186); assay: ELISA
T3 construct: range 24-186; also called 4-1BB-Fc; not shown: human IgG1 Fc fragment fused at the C-terminus

生物素化的hu4-1BB-hFc = target: T4, 生物素化的hu4-1BB-hFc (human, UniProt Q07011 24-186, EZ-Link Sulfo-NHS-LC-biotin label; the sites are not stated); assay: ELISA
T4 construct: range 24-186; also called 生物素标记的hu4-1BB-hFc抗原蛋白; biotinylated hu4-1BB-hFc; not shown: human IgG1 Fc fragment fused at the C-terminus

[1] = target: T5, 人4-1BB (Uniprot编号Q07011), expressed on cells (human, UniProt Q07011 24-255); assay: flow cytometry on hu4-1BB-CHO cells
T5 construct: whole, on cells; also called hu4-1BB-CHO; 人4-1BB过表达细胞
T5 sequence (Q07011 24-255): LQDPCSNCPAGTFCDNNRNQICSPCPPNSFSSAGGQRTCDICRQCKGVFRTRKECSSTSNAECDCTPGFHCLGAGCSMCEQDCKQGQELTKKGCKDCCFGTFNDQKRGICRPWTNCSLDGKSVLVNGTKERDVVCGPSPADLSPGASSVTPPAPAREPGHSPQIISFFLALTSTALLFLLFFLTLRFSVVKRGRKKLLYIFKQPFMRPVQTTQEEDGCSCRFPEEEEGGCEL

Binder | binding result (Mus4-1BB-hFc) | EC50 (hu4-1BB-His) [µg/mL] | binding result (hu4-1BB-hFc) | binding result (生物素化的hu4-1BB-hFc) | binding result (hu4-1BB-His) | binding result [1]
99-2-17 (antibody, human IgG4 S228P, lambda, V domains shown, also called 抗体99-2-17; 母本抗体99-2-17) VH: QVQLVQSGGGLVQPGGSLRLSCSASGFTFSSYAMHWVRQAPGKGLEYVSAISSNGGSTYYADSVKGRFTISRDNSKNTLYLQMSSLRAEDTAVYYCVKGSGWSPIDAFDIWGQGTMVTVSS VL: QSALTQPPSVSGAPGQRVTISCTGSSSNIGAGYDVHWYQQLPGTAPKLLIYGNSNRPSGVPDRFSGSKSGTSASLAITGLQAEDEADYYCQSYDSSLSGSGAVFGGGTQLTVLG | binds | 0.411 |  |  |  | 
99-2-35 (antibody, human IgG4 S228P, kappa, V domains shown, also called 抗体99-2-35; 母本抗体99-2-35) VH: EVQLLESGGGLVQPGGSLRLSCAASGFTFSSYEMNWVRQAPGKGLEWVSYISSSGSTIYYADSVKGRFTISRDNAKNSLYLQMNSLRAEDTAVYYCARDFNGGYSYYPIAFDIWGQGTMVTVSS VL: EIVLTQSPATLSLSPGERATLSCRASQSVSSYLAWYQQKPGQAPRLLIYDASNRATGIPARFSGSGSGTDFTLTISSLEPEDFAVYYCQQRSNWPPMYTFGQGTKLEIKR | binds | 0.35 |  |  |  | 
Ag10058 (antibody, human IgG4 S228P, kappa, V domains shown, also called 阳性对照抗体Ag10058) VH: EVQLVESGGGLVQPGGSLRLSCAASGFSLSTSGVGVGWIRQAPGKGLEWLALIDWDDDKYYSPSLKSRLTISRDNSKNTLYLQLNSLRAEDTAVYYCARGGSDTVLGDWFAYWGQGTLVTVSS VL: DIQLTQSPSSLSASVGDRVTITCRASQSVSPYLAWYQQKPGKAPKLLIYDASSLESGVPSRFSGSGSGTDFTLTISSLQPEDFATYYCQQGYSLWTFGQGTKVEIKR |  |  | binds | binds |  | 
Ag10131 (antibody, human IgG4 S228P, kappa, V domains shown, also called 阳性对照抗体Ag10131; 对照抗体Ag10131) VH: EVQLVESGGGLVQPGGSLRLSCAASGFSLSTGGVGVGWIRQAPGKGLEWLALIDWADDKYYSPSLKSRLTISRDNSKNTLYLQLNSLRAEDTAVYYCARGGSDTVIGDWFAYWGQGTLVTVSS VL: DIQLTQSPSSLSASVGDRVTITCRASQSIGSYLAWYQQKPGKAPKLLIYDASNLETGVPSRFSGSGSGTDFTLTISSLQPEDFATYYCQQGYYLWTFGQGTKVEIKR |  |  | binds | binds | binds | binds
